As usually defined, the Kd is the equilibrium constant for the complex coming apart. By koff is commonly meant a measure of how fast the partners let go of each other. One may read the kon as a measure of how fast the partners come together.

For one test, the target named is T1, mouse FAP (mouse, UniProt P97321 26-761, limits assumed).
T1 construct: also called mFAP
T1 sequence (looked up): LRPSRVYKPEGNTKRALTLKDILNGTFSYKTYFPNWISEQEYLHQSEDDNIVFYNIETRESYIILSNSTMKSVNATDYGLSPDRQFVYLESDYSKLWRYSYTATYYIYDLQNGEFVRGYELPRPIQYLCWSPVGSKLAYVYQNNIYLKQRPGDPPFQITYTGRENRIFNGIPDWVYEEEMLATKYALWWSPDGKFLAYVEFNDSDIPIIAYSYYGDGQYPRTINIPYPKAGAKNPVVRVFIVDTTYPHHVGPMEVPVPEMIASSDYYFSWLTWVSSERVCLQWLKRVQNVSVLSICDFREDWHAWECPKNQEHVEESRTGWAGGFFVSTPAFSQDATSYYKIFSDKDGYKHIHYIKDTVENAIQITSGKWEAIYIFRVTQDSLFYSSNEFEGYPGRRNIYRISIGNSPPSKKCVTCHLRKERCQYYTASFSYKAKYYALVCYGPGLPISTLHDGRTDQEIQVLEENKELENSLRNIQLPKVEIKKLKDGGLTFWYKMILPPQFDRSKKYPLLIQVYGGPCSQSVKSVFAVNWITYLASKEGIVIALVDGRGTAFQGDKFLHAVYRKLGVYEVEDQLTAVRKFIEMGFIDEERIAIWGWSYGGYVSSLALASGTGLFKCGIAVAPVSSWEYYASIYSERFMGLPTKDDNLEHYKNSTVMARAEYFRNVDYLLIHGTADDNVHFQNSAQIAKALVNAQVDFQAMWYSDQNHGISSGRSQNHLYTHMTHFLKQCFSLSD
The test can be described thus: SPR (ProteOn XPR36), mFAP immobilized on GLC chip, Protein #5 as analyte. As for the experimental part: (§1) All SPR measurements were performed using a ProteOn XPR36 instrument (BioRad) and a running buffer of PBS pH 7.4 containing 0.005% Tween 20® (PBST). The 1:1 Langmuir model was used for the fitting of SPR traces.
(§2) ProteOn setup for Protein #5 binding to FAP of different species. hFAP, cynomolgus FAP (cFAP) and mouse FAP (mFAP) were immobilized on a GLC chip (BioRad) in 10 mM Na Acetate buffer pH5.3 to a level of 1200 RU, 800 RU and 2000 RU, respectively. The interaction of FAP and Protein #5 was measured by applying Protein #5 in a serial dilution of […] and 3.13 nM with an association of 120 s and dissociation of 1800 s using a constant flow of 100 μl/min. The targets were regenerated using 10 mM glycine pH 2 and 124 mM H₃PO₄. The signals were double referenced against the PBST treated control lanes.

The target of another test is T2, cynomolgus FAP (cynomolgus).
T2 chain: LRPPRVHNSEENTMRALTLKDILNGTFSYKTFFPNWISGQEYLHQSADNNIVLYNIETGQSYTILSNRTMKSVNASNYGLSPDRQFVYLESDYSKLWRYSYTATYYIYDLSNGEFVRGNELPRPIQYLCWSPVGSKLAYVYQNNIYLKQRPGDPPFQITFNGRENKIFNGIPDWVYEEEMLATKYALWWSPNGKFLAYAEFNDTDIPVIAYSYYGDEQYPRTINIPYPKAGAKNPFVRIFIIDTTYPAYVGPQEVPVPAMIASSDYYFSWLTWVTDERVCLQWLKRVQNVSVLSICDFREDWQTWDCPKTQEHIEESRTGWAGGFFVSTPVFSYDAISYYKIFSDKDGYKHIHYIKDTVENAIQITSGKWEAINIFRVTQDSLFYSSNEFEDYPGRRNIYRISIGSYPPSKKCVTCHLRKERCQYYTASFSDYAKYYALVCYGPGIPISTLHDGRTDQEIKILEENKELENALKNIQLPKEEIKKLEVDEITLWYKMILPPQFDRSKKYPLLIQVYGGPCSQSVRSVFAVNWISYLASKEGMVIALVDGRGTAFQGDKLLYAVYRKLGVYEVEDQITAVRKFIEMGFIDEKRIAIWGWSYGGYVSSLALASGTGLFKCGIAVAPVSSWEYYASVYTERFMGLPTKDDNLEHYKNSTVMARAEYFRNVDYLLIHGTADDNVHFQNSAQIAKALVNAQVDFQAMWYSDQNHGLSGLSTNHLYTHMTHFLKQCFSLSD
Description: SPR (ProteOn XPR36), FAP immobilized on GLC chip, Protein #5 as analyte, PBST, 1:1 Langmuir. As for the experimental part:
as §1, §2

A further test concerns the target T3, human FAP (recombinant) (human, UniProt Q12884 26-760).
T3 construct: also called hFAP; rhFAP
T3 sequence: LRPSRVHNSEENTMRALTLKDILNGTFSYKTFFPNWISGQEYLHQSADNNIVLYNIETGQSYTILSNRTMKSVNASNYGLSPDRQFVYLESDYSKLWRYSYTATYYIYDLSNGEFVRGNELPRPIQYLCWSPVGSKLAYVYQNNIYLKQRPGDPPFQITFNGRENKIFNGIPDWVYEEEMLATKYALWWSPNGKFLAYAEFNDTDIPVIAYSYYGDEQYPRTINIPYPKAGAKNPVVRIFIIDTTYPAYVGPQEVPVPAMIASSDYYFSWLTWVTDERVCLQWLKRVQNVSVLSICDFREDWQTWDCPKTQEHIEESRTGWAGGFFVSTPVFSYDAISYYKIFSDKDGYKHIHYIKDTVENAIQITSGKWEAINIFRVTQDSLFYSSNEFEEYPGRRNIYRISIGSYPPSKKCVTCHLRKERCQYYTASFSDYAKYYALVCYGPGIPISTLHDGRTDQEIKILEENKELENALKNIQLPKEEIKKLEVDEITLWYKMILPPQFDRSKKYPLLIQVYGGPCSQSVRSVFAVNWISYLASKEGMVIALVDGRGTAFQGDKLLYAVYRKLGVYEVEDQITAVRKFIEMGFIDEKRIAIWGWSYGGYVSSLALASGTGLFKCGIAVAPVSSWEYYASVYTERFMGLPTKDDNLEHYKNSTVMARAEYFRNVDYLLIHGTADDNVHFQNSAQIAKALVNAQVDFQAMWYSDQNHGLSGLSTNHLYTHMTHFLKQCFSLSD
The description is as above. As for the experimental part:
as §1, §2

B1: DARPin Protein #5 (designed binder)
chain: GSDLGKKLLEAARAGQDDEVRELLKAGADVNAKDYFSHTPLHLAARNGHLKIVEVLLKAGADVNAKDFAGKTPLHLAAADGHLEIVEVLLKAGADVNAQDIFGKTPADIAADAGHEDIAEVLQKAAGSPTPTPTTPTPTPTTPTPTPTGSDLGKKLLEAARAGQDDEVRILLAAGADVNAKDVLGWTPLHLAAFEGHLEIVEVLLKAGADVNAKDKKGWTPLQLAARTGHLEIVEVLLKAGADVNAKDHIGATPLHLAAWQGHPEIVEVLLKAGADVNAQDKSGKTPADLAADAGHEDIAEVLQKAAGSPTPTPTTPTPTPTTPTPTPTGSDLGKKLLQAARAGQLDEVRELLKAGADVNAKDTWGFTPLHIAAESGHLEIVEVLLKAGADVNAKDVQGRTPLHIAAHSGHLEIVEVLLKAGADVNAKDFRGWTPLHLAAWSGHLEIVEILLKAGADVNAQDKSGKTPADLAARAGHQDIAEVLQKAAGSPTPTPTTPTPTPTTPTPTPTGSDLGKKLLQAARAGQLDEVRELLKAGADVNAKDTWGFTPLHIAAESGHLEIVEVLLKAGADVNAKDVQGRTPLHIAAHSGHLEIVEVLLKAGADVNAKDFRGWTPLHLAAWSGHLEIVEILLKAGADVNAQDKSGKTPADLAARAGHQDIAEVLQKAA
notes: also called SMA136; Molecule No. 1
Turning to B1, the binding result in the test with mouse FAP is “no binding (tested: 50 nM (highest concentration injected))”. In the test with cynomolgus FAP, this molecule came in with a Kd of 0.339 nM, a koff of 0.000146 s⁻¹ and a kon of 432000 M⁻¹ s⁻¹. Besides, in the test with human FAP (recombinant), the Kd amounted to 0.307 nM, the koff amounted to 0.000126 s⁻¹ and the on-rate (kon) was determined as 409000 M⁻¹ s⁻¹.

For the origin of these results see patent US20210395318A1 (Molecular Partners, published 2021).
